# Data as given in the Immune Epitope Database (IEDB).
# Assays:
# HLA-A*01:01 [1] = test: IEDB peptide-MHC binding, purified MHC/direct/fluorescence; filed as Kd, often an IC50 or EC50 that approximates it; ≥ and ≤ were set here for values at or beyond the usual limits of such assays
# HLA-A*02:01 [2] = test: as above
# HLA-A*69:01 [3] = test: as above
# HLA-B*18:01 [4] = test: as above
# HLA-B*57:01 [5] = test: as above
# HLA-A*26:02 [6] = test: as above
# HLA-A*11:01 [7] = test: as above
# HLA-B*08:03 = test: as above
# HLA-A*68:02 [8] = test: as above
# HLA-B*40:01 = test: as above
# HLA-A*26:03 [9] = test: as above
# HLA-B*48:01 = test: as above
# HLA-B*44:02 = test: as above; conditions: source organism: Orthomarburgvirus marburgense
# HLA-B*58:01 = test: as above
# HLA-A*31:01 = test: as above
# HLA-B*27:05 [10] = test: as above
# HLA-B*07:02 = test: as above
# HLA-B*15:17 [11] = test: as above; conditions: source organism: Orthomarburgvirus marburgense
# HLA-B*08:02 = test: as above
# HLA-A*02:06 = test: IEDB peptide-MHC binding, purified MHC/competitive/fluorescence; filed as Kd, often an IC50 or EC50 that approximates it; ≥ and ≤ were set here for values at or beyond the usual limits of such assays
# HLA-B*39:01 = test: as above; conditions: source organism: Orthomarburgvirus marburgense
# HLA-A*26:01 = test: IEDB peptide-MHC binding, purified MHC/direct/fluorescence; filed as Kd, often an IC50 or EC50 that approximates it; ≥ and ≤ were set here for values at or beyond the usual limits of such assays
# HLA-A*24:03 = test: as above; conditions: source organism: Cowpox virus
# HLA-B*18:01 [12] = test: IEDB peptide-MHC binding, purified MHC/competitive/fluorescence; filed as Kd, often an IC50 or EC50 that approximates it; ≥ and ≤ were set here for values at or beyond the usual limits of such assays
# HLA-A*26:02 [13] = test: as above
# HLA-A*26:03 [14] = test: as above; conditions: source organism: Variola virus
# HLA-B*15:01 [15] = test: as above
# HLA-B*15:17 [16] = test: as above
# HLA-B*46:01 = test: IEDB peptide-MHC binding, purified MHC/direct/fluorescence; filed as Kd, often an IC50 or EC50 that approximates it; ≥ and ≤ were set here for values at or beyond the usual limits of such assays
# HLA-A*03:01 = test: as above
# HLA-B*15:01 [17] = test: as above; conditions: source organism: Burkholderia mallei
# HLA-B*08:01 = test: as above
# HLA-A*02:01 [18] = test: IEDB peptide-MHC binding, purified MHC/competitive/fluorescence; filed as Kd, often an IC50 or EC50 that approximates it; ≥ and ≤ were set here for values at or beyond the usual limits of such assays
# HLA-A*68:02 [19] = test: as above
# HLA-B*27:05 [20] = test: as above; conditions: source organism: Burkholderia mallei NCTC 10229
# HLA-A*01:01 [21] = test: as above; conditions: source organism: Human immunodeficiency virus 1
# HLA-A*69:01 [22] = test: as above; conditions: source organism: Human immunodeficiency virus 1
# HLA-A*11:01 [23] = test: as above; conditions: source organism: Human immunodeficiency virus 1
# HLA-A*30:01 = test: as above; conditions: source organism: Human immunodeficiency virus 1
# HLA-A*02:03 = test: as above; conditions: source organism: Human immunodeficiency virus 1
# HLA-B*57:01 [24] = test: as above; conditions: source organism: Giardia lamblia ATCC 50803
# [25] = source organism: Orthomarburgvirus marburgense
# [26] = source organism: Ravn virus - Ravn, Kenya, 1987
# [27] = source organism: Burkholderia mallei
# [28] = source organism: Burkholderia mallei ATCC 23344
# [29] = source organism: Burkholderia mallei NCTC 10229
# [30] = source organism: Human immunodeficiency virus 1
# [31] = source organism: Giardia intestinalis
# [32] = source organism: Giardia lamblia ATCC 50803
sequence,measurement,setting,value
LEHGLYPQL,Kd,HLA-A*01:01 [1]; [25],≥ 20 µM
same,Kd,HLA-A*02:01 [2]; [25],≥ 20 µM
same,Kd,HLA-A*69:01 [3]; [25],≥ 20 µM
same,Kd,HLA-B*18:01 [4]; [25],0.034 µM
same,Kd,HLA-B*57:01 [5]; [25],≥ 20 µM
same,Kd,HLA-A*26:02 [6]; [26],≥ 20 µM
same,Kd,HLA-A*11:01 [7]; [25],≥ 20 µM
same,Kd,HLA-B*08:03; [26],≥ 20 µM
same,Kd,HLA-A*68:02 [8]; [25],≥ 20 µM
same,Kd,HLA-B*40:01; [25],0.017 µM
same,Kd,HLA-A*26:03 [9]; [26],≥ 20 µM
same,Kd,HLA-B*48:01; [25],0.634 µM
same,Kd,HLA-B*44:02,≥ 5 µM
same,Kd,HLA-B*58:01; [25],≥ 20 µM
same,Kd,HLA-A*31:01; [25],≥ 20 µM
same,Kd,HLA-B*27:05 [10]; [25],≥ 20 µM
same,Kd,HLA-B*07:02; [25],≥ 20 µM
same,Kd,HLA-B*15:17 [11],≥ 20 µM
same,Kd,HLA-B*08:02; [26],≥ 20 µM
same,Kd,HLA-A*02:06; [25],≥ 20 µM
same,Kd,HLA-B*39:01,0.931 µM
STKAACPTM,Kd,HLA-A*26:01; source organism: West Nile virus,15.7 µM
same,Kd,HLA-A*26:02 [6]; source organism: West Nile virus strain PTRoxo,1.04 µM
VYSFDESSF,Kd,HLA-A*01:01 [1]; source organism: Cowpox virus,≥ 20 µM
same,Kd,HLA-A*02:01 [2]; source organism: Cowpox virus,≥ 20 µM
same,Kd,HLA-A*69:01 [3]; source organism: Cowpox virus,≥ 20 µM
same,Kd,HLA-B*57:01 [5]; source organism: Cowpox virus,≥ 20 µM
same,Kd,HLA-A*11:01 [7]; source organism: Cowpox virus,≥ 20 µM
same,Kd,HLA-A*68:02 [8]; source organism: Cowpox virus,≥ 20 µM
same,Kd,HLA-B*58:01; source organism: Cowpox virus,≥ 20 µM
same,Kd,HLA-A*31:01; source organism: Cowpox virus,≥ 20 µM
same,Kd,HLA-B*07:02; source organism: Cowpox virus,≥ 20 µM
same,Kd,HLA-A*24:03,0.275 µM
same,Kd,HLA-A*02:06; source organism: Variola virus,≥ 20 µM
same,Kd,HLA-B*18:01 [12]; source organism: Variola virus,0.379 µM
same,Kd,HLA-A*26:02 [13]; source organism: Variola virus,0.192 µM
same,Kd,HLA-A*26:03 [14],1.42 µM
same,Kd,HLA-B*15:01 [15]; source organism: Variola virus,2.28 µM
same,Kd,HLA-B*15:17 [16]; source organism: Variola virus,2.1 µM
RRSLLAHVR,Kd,HLA-A*01:01 [1]; [27],≥ 20 µM
same,Kd,HLA-A*26:01; [28],≥ 20 µM
same,Kd,HLA-B*18:01 [4]; [27],≥ 20 µM
same,Kd,HLA-B*57:01 [5]; [27],≥ 20 µM
same,Kd,HLA-A*26:02 [6]; [28],≥ 20 µM
same,Kd,HLA-A*11:01 [7]; [27],1.13 µM
same,Kd,HLA-B*46:01; [27],≥ 20 µM
same,Kd,HLA-A*03:01; [27],1.18 µM
same,Kd,HLA-B*40:01; [27],≥ 20 µM
same,Kd,HLA-A*26:03 [9]; [28],≥ 20 µM
same,Kd,HLA-B*48:01; [27],≥ 20 µM
same,Kd,HLA-B*15:01 [17],≥ 20 µM
same,Kd,HLA-B*58:01; [27],≥ 20 µM
same,Kd,HLA-A*31:01; [27],5.4 µM
same,Kd,HLA-B*08:01; [28],≥ 20 µM
same,Kd,HLA-B*07:02; [27],≥ 20 µM
same,Kd,HLA-B*08:02; [28],≥ 20 µM
same,Kd,HLA-A*02:01 [18]; [29],0.034 µM
same,Kd,HLA-A*68:02 [19]; [29],2.92 µM
same,Kd,HLA-B*27:05 [20],0.0066 µM
same,Kd,HLA-B*15:17 [16]; [29],≥ 20 µM
RSLYNTVATLY,Kd,HLA-A*01:01 [21],≥ 20 µM
same,Kd,HLA-A*69:01 [22],16.6 µM
same,Kd,HLA-A*02:06; [30],≥ 20 µM
same,Kd,HLA-B*18:01 [12]; [30],0.0763 µM
same,Kd,HLA-A*26:02 [13]; [30],≥ 20 µM
same,Kd,HLA-A*11:01 [23],≥ 20 µM
same,Kd,HLA-A*30:01,≥ 20 µM
same,Kd,HLA-A*02:03,≥ 20 µM
same,Kd,HLA-B*15:17 [16]; [30],0.0007 µM
RTMPLSRFT,Kd,HLA-A*01:01 [1]; [31],≥ 20 µM
same,Kd,HLA-A*26:01; [32],≥ 20 µM
same,Kd,HLA-A*69:01 [3]; [31],≥ 20 µM
same,Kd,HLA-B*18:01 [4]; [31],≥ 20 µM
same,Kd,HLA-A*11:01 [7]; [31],2.68 µM
same,Kd,HLA-B*08:03; [32],≥ 20 µM
same,Kd,HLA-B*46:01; [31],≥ 20 µM
same,Kd,HLA-A*03:01; [31],≥ 20 µM
same,Kd,HLA-B*40:01; [31],≥ 20 µM
same,Kd,HLA-A*26:03 [9]; [32],≥ 20 µM
same,Kd,HLA-B*48:01; [31],≥ 20 µM
same,Kd,HLA-B*58:01; [31],≥ 20 µM
same,Kd,HLA-A*31:01; [31],12.5 µM
same,Kd,HLA-B*08:01; [32],≥ 20 µM
same,Kd,HLA-B*27:05 [10]; [31],≥ 20 µM
same,Kd,HLA-B*07:02; [31],≥ 20 µM
same,Kd,HLA-B*08:02; [32],≥ 20 µM
same,Kd,HLA-A*02:01 [18]; [32],≥ 20 µM
same,Kd,HLA-B*57:01 [24],0.375 µM
same,Kd,HLA-A*68:02 [19]; [32],4.56 µM
same,Kd,HLA-B*15:01 [15]; [32],14 µM
same,Kd,HLA-B*15:17 [16]; [32],≥ 20 µM
